For four molecules, Kd and koff results are on record in article PMC4280530 (2014).

Assay [1] deals with T1, Bacillus thuringiensis (Bt) Cry1Ac toxin (Bacillus thuringiensis, UniProt P05068 1-1178). The assay is described as follows: SPR. On the technique in general: Surface plasmon resonance follows binding to a sensor surface in real time, without labels.
In assay [2] the target is T1, Bacillus thuringiensis (Bt) Cry1Ac toxin. The assay is described as follows: SPR. The source holds these as a separate data set.

The Kd is the free concentration of one partner at which half of the binding sites on the other are occupied at equilibrium, for simple one-to-one binding. Read a high Kd as a looser complex. In general, koff refers to the first-order rate constant of dissociation. High values mean a short-lived complex, low ones a long-lived complex.

T1 sequence (P05068 whole entry): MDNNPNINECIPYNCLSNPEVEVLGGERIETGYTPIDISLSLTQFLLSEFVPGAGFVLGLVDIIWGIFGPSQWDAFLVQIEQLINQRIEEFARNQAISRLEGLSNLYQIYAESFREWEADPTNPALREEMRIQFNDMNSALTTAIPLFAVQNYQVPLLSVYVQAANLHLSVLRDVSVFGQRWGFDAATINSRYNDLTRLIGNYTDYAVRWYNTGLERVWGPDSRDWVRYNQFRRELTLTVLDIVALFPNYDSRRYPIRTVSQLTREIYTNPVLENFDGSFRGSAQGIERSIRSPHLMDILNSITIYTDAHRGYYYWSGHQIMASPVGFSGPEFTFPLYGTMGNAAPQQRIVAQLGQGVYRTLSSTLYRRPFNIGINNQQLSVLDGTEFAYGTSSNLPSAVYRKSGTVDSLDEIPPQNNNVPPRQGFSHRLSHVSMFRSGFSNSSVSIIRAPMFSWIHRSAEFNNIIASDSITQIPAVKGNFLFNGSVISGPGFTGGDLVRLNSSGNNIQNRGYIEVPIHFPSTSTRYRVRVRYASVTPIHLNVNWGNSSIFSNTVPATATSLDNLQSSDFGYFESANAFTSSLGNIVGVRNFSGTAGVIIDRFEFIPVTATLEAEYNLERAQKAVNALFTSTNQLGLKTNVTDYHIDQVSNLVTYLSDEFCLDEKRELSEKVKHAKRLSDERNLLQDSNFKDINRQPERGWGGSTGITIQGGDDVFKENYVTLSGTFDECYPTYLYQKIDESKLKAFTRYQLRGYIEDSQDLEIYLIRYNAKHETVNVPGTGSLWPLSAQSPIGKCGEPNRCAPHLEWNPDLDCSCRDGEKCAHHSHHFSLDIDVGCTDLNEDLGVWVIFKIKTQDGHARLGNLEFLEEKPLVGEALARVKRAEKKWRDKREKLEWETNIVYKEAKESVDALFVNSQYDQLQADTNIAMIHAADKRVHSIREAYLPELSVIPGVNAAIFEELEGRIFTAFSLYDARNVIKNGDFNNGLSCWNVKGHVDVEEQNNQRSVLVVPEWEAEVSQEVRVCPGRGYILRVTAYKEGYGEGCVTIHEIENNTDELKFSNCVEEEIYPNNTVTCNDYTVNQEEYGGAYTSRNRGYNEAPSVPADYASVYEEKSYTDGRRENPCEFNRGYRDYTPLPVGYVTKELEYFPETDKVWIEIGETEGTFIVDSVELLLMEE

B1: anti-Cry1Ac nanobody Nb58 (VHH)
VHH: QVQLQESGGGLVQPGGSLRLSCTASGFTFSSYEMDWFRRAPGKELEWVAGITSGGEGTSYRNSVKGRFTISRDNAKNTLYLHLNSLKNEDTAMYYCAKDRRALGEVGQGTQVTVSS
As to B1, the affinity in assay [1], expressed as Kd, was 23.2 nM. The same molecule had a koff in assay [2] of 0.00151 s⁻¹.

B2: anti-Cry1Ac nanobody Nb59 (VHH)
VHH: QVQLQESGGGLVQPGGSLRLSCAASGFTFRDYYMTWVRQAPGQGLEWVSSISFGGGRTYYADSVKGRFTISRDNPENTLYLQLSNLKTEDTAMYYCARGRPNADYDRRGQGTQVTVSS
Molecule B2 returned a Kd in assay [1] of 18 nM. This molecule also gave a koff in assay [2] of 0.00178 s⁻¹.

B3: anti-Cry1Ac nanobody Nb44 (VHH)
VHH: QVQLQESGGGSVQAGGSLRLSCATSGLTYSARITWFRQAPEKEREGVATFSTGSGSTGYADSVKGRFTISQDNAKNTLYLQMNNLKPEDTAMYYCAADTSTSWRDIVLVARYKYWGQGTQVTVSS
Take B3: the Kd in assay [1] stood at 6.89 nM. The molecule further registered a dissociation rate constant (koff) in assay [2] of 0.0014 s⁻¹.

B4: anti-Cry1Ac nanobody Nb61 (VHH)
VHH: QVQLQESGGGSVQAGGSLRLSCEASENTYNSVYMAWFRQAPEKEREGVAVLSTGGGRTYYTDSVKGRFTISRDNAKNMVYLQMNSLKPDDTAMYYCAATYTGDSYGPSLYYLTPGRYEYWGQGTQVTVSS
In assay [1], B4 displayed a Kd of 60.9 nM. Moreover, the koff in assay [2] was found to be 0.00084 s⁻¹.
